Laboratory results reported in the RNAGym collection of RNA variant scans (doi:10.1093/molbev/msab373).

B1: Azoarcus group I ribozyme (parent)
chain: GUGCCUUGCGCCGGGAAACCACGCAAGGGAUGGUGUCAAAUUCGGCGAAACCUAAGCGCCCGCCCGGGCGUAUGGCAACGCCGAGCCAAGCUUCGGCGCCUGCGCCGAUGAAGGUGUAGAGACUAGACGGCACCCACCUAAGGCAAACGCUAUGGUGAAGGCAUAGUCCAGGGAGUGGCGAAAGUCACACAAACCGG

Variants of: B1
Assay: reverse-splicing fitness (ratio to wild type); higher = more active; in vitro selection; Mg2+ level not given
In short: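 An in vitro group I ribozyme library with randomized positions was T7-transcribed and gel-purified. In triplicate, 10 pmol RNA in EPPS pH 7.5 was reacted with 50 pmoles of a 30-nt RNA substrate for 1 h at 37 °C across several added MgCl2 levels (1–48 mM), then stopped with EDTA. Products were reverse transcribed from a substrate-complementary primer, PCR-amplified and sequenced (HiSeq 4000). Fitness is a variant's read proportion after selection over that before, normalised to wild type.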

Point of comparison: C82G A111G A145C C150A, reverse-splicing fitness 0.0192. Against it:
- C82G A111G A120U C169G U176C — lower, 0.00434
- C82G A111G A120U C169A U176C — lower, 0.00309
- C82G A111G A120U C169A U176A — lower, 0.00371
- C82G A111G A120U C169A U176G — lower, 0.00169
- C82G A111G A145G C169U — lower, 0.0129
- C82G A111G A145G C169A — lower, 0.00875
- C82G A111G A145G C169G — lower, 0.0101
- C82G A111G A145C C150A C169U U176A — lower, 0.0123
- C82G A111G A145C C150A C169U U176C — lower, 0.00961
- C82G A111G A145C C150A C169U U176G — lower, 0.00582
- C82G A111G A120U C169U U176A — lower, 0.00385
- C82G A111G A120U C169U U176G — lower, 0.00158
- C82G A111G A120U C169U U176C — lower, 0.0055
- C82G A111G A145G C150U C169U U176A — lower, 0.0152
- C82G A111G A145G C150U C169U U176G — lower, 0.00678
- C82G A111G A145G C150U C169U U176C — lower, 0.0151
- C82G A111G A145U C150A — higher, 0.0314
- C82G A111G A145U C150G — higher, 0.0338
- C82G A111G A145G C150G C169U U176C — lower, 0.0131
- C82G A111G A145G C150G C169U U176G — lower, 0.00803
- C82G A111G A145G C150G C169U U176A — lower, 0.012
- C82G A111G A145G C169G U176C — higher, 0.0231
- C82G A111G A145G C169G U176G — lower, 0.00505
- C82G A111G A145G C169G U176A — lower, 0.016
- C82G A111G A145U C150G C169A U176C — lower, 0.0155
- C82G A111G A145U C150G C169A U176G — lower, 0.00637
- C82G A111G A145U C150G C169A U176A — lower, 0.0126
- C82G A111G A145U C150A C169A U176C — lower, 0.0131
- C82G A111G A145U C150A C169A U176A — lower, 0.0154
- C82G A111G A145U C150A C169A U176G — lower, 0.00645
- C82G A111G A145C C169U U176C — lower, 0.0106
- C82G A111G A145C C169U U176G — lower, 0.00545
- C82G A111G A145C C169U U176A — lower, 0.0135
- C82G A111G A145U C150A C169G U176G — lower, 0.00554
- C82G A111G A145U C150A C169G U176C — lower, 0.0146
- C82G A111G A145U C150A C169G U176A — lower, 0.0149
- C82G A111G A145C C150G C169G U176A — lower, 0.0101
- C82G A111G A145C C150G C169G U176G — lower, 0.0057
- C82G A111G A145C C150G C169G U176C — lower, 0.00856
- C82G A111G A145C C169G U176C — lower, 0.0131
- C82G A111G A145C C169G U176A — higher, 0.022
- C82G A111G A145C C169G U176G — lower, 0.00501
- C82G A111G A145G C150G C169G U176C — lower, 0.0126
- C82G A111G A145G C150G C169G U176G — lower, 0.0064
- C82G A111G A145G C150G C169G U176A — lower, 0.011
- C82G A111G A145C C150A C169A U176G — lower, 0.00663
- C82G A111G A145C C150A C169A U176C — lower, 0.00683
- C82G A111G A145C C150A C169A U176A — lower, 0.0136
- C82G A111G A145G C150A C169G U176A — higher, 0.0196
- C82G A111G A145G C150A C169G U176C — higher, 0.0258
- C82G A111G A145G C150A C169G U176G — lower, 0.006
- C82G A111G A145U C150A C169U U176A — lower, 0.0141
- C82G A111G A145U C150A C169U U176G — lower, 0.00554
- C82G A111G A145U C150A C169U U176C — lower, 0.0148
- C82G A111G A145C C150U C169U — lower, 0.0102
- C82G A111G A145C C150U C169G — lower, 0.00753
- C82G A111G A145C C150U C169A — lower, 0.00783
- C82G A111G A145U C150A U176G — lower, 0.0136
- C82G A111G A145U C150A U176C — higher, 0.0339
- C82G A111G A145U C150A U176A — higher, 0.03
- C82G A111G A145C C150A C169A — lower, 0.00763
- C82G A111G A145C C150A C169U — lower, 0.0097
- C82G A111G A145C C150A C169G — lower, 0.00798
- C82G A111G A145C — higher, 0.392
- C82G A111G A145G — higher, 0.431
- C82G A111G A145U — higher, 0.454
- C82G A111G A145C C150G — higher, 0.0378
- C82G A111G A145C C150U — higher, 0.0841
- C82G A111G A145U C150G C169A — lower, 0.0092
- C82G A111G A145G C150U U176C — higher, 0.213
- C82G A111G A145G C150U U176A — higher, 0.174
- C82G A111G A145G C150U U176G — higher, 0.068
- C82G A111G A145C C150G C169U — lower, 0.00923
- C82G A111G A145C C150G C169G — lower, 0.00758
- C82G A111G A145C C150G C169A — lower, 0.00828
- C82G A111G A145G C169A U176C — higher, 0.0235
- C82G A111G A145G C169A U176G — lower, 0.0057
- C82G A111G A145G C169A U176A — lower, 0.0158
- C82G A111G A120U C150U U176C — lower, 0.0164
- C82G A111G A120U C150U U176G — lower, 0.00497
- C82G A111G A145C C150U C169A U176C — lower, 0.00686
- C82G A111G A145C C150U C169A U176G — lower, 0.00694
- C82G A111G A145C C150U C169A U176A — lower, 0.0123
